Results reported in PMC12635394, “UBE2O-mediated ubiquitylation directs cytoplasmic CTNNA1 to promote cell-to-ECM adhesions” (EMBO Reports, 2025).

T1: Flag-UBE2O-TwinStrep (purified full-length human UBE2O, wild type) (human, UniProt Q9C0C9 1-1292)
T1 construct: UBE2O, human, full-length WT in N-terminal Flag-tagged and C-terminal TwinStrep-tagged pLV vector; also called Flag-UBE2O-TS; Flag-UBE2O-WT-TwinStrep; source: Expi293F, transfected, purified (Strep-Tactin XT, Superdex 200); not shown: Flag, N-terminal, kept; TwinStrep, C-terminal, kept
T1 sequence (looked up): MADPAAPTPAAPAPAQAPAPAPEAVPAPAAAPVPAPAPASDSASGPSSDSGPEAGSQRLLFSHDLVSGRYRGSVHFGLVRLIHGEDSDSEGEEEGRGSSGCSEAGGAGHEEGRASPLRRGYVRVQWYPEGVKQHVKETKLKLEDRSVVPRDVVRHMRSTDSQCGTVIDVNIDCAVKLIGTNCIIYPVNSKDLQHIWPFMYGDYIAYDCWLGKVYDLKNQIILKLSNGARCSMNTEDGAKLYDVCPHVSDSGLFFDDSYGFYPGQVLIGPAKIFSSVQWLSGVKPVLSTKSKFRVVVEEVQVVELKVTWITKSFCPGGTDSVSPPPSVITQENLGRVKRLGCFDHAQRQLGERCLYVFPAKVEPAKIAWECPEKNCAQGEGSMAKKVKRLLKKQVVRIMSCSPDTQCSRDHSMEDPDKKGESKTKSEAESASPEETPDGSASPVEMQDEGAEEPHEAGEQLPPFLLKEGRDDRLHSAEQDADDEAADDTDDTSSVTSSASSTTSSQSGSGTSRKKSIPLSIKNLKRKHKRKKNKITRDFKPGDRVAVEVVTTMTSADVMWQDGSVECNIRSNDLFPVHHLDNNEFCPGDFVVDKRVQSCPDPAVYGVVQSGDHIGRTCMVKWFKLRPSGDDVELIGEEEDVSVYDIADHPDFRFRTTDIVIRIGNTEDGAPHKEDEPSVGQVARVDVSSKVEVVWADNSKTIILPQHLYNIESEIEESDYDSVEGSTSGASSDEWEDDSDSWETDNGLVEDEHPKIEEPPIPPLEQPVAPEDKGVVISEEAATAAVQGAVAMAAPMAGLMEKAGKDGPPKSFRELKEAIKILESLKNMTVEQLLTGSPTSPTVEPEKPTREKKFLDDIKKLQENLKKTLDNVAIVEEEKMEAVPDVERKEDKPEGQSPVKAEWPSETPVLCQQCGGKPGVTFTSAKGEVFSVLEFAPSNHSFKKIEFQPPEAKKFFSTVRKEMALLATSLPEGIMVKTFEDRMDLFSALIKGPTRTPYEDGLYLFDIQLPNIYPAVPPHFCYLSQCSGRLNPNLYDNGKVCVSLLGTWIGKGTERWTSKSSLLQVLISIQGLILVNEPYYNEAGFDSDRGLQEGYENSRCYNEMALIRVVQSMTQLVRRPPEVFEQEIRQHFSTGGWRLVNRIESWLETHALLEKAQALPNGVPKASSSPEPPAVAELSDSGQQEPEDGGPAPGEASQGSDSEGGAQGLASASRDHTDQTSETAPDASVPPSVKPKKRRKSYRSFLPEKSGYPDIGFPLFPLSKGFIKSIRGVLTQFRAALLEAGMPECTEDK

B1: CTNNA1-Myc (purified mouse CTNNA1 with C-terminal Myc tag) (natural protein, UniProt P26231 1-906, looked up)
chain: MTAVHAGNINFKWDPKSLEIRTLAVERLLEPLVTQVTTLVNTNSKGPSNKKRGRSKKAHVLAASVEQATENFLEKGDKIAKESQFLKEELVVAVEDVRKQGDLMKSAAGEFADDPCSSVKRGNMVRAARALLSAVTRLLILADMADVYKLLVQLKVVEDGILKLRNAGNEQDLGIQYKALKPEVDKLNIMAAKRQQELKDVGNRDQMAAARGILQKNVPILYTASQACLQHPDVAAYKANRDLIYKQLQQAVTGISNAAQATASDDAAQHQGGSGGELAYALNNFDKQIIVDPLSFSEERFRPSLEERLESIISGAALMADSSCTRDDRRERIVAECNAVRQALQDLLSEYMGNAGRKERSDALNSAIDKMTKKTRDLRRQLRKAVMDHVSDSFLETNVPLLVLIEAAKNGNEKEVKEYAQVFREHANKLIEVANLACSISNNEEGVKLVRMSASQLEALCPQVINAALALAAKPQSKLAQENMDLFKEQWEKQVRVLTDAVDDITSIDDFLAVSENHILEDVNKCVIALQEKDVDGLDRTAGAIRGRAARVIHVVTSEMDNYEPGVYTEKVLEATKLLSNTVMPRFTEQVEAAVEALSSDPAQPMDENEFIDASRLVYDGIRDIRKAVLMIRTPEELDDSDFETEDFDVRSRTSVQTEDDQLIAGQSARAIMAQLPQEQKAKIAEQVASFQEEKSKLDAEVSKWDDSGNDIIVLAKQMCMIMMEMTDFTRGKGPLKNTSDVISAAKKIAEAGSRMDKLGRTIADHCPDSACKQDLLAYLQRIALYCHQLNICSKVKAEVQNLGGELVVSGVDSAMSLIQAAKNLMNAVVQTVKASYVASTKYQKSQGMASLNLPAVSWKMKAPEKKPLVKREKQDETQTKIKRASQKKHVNPVQALSEFKAMDSI
notes: αE-catenin (CTNNA1), mouse; full-length Ctnna1 in C-terminal Myc-tagged pGEX-6P-1; also called mCTNNA1-Myc; pGEX-6P-1-CTNNA1-Myc; source: E. coli BL21 (DE3), purified (glutathione resin, GST removed with PreScission protease); not shown: Myc, C-terminal, kept
B2: CTNNA1-V5 (purified mouse CTNNA1 with C-terminal V5 tag) (natural protein, UniProt P26231 1-906, looked up)
chain: B1 chain
notes: αE-catenin (CTNNA1), mouse; full-length Ctnna1 in C-terminal V5-tagged pGEX-6P-1; As the unmodified 'CTNNA1' bait it went through the ubiquitylation reaction without ATP before capture on V5-Trap; also called mCTNNA1-V5; CTNNA1 bait; source: E. coli BL21 (DE3), purified (glutathione resin, GST removed with PreScission protease); not shown: V5, C-terminal, kept

Tests used:
[1] = target: T1, Flag-UBE2O-TwinStrep (purified …); assay: pull-down; 0.1 μM purified Flag-UBE2O-TS mixed with 0.1 μM purified CTNNA1-Myc in lysis buffer, captured on anti-c-Myc magnetic beads, 4 °C, 1.5 h, immunoblot; conditions: both partners purified
[2] = target: T1, Flag-UBE2O-TwinStrep (purified …); assay: pull-down; 0.1 μM CTNNA1-V5 pre-incubated overnight at 4 °C with 0, 25 or 50 nM His-GST-β-catenin, captured on BSA-blocked V5-Trap beads, washed, then 0.1 μM Flag-UBE2O-TS for 1.5 h at 4 °C, immunoblot; conditions: both partners purified

| Binder | binding result [1] | binding result [2] |
| --- | --- | --- |
| B1 | binds |  |
| B2 |  | binds |
